# Reference: patent US20260317443 (published 2026)
# Substitutions are numbered along the chain they refer to.
# B1: 33D03_H1-L4 (antibody, V domains shown)
# VH: QVQLVQSGAEVKKPGASVKVSCKASGYTFTDYYLNWVRQAPGQRLEWMGIINPYNGGTNYSQKFQGRVTITRDTSASTAYMELSSLRSEDTAVYYCASEGLRTWFTYWGQGTLVTVSS
# VL: DIVMTQSPDSLAVSLGERATISCKSSQSLSNSGNQKIYLAWYQQKPGQPPKLLIYGASSRESGVPDRFSGSGSEIDFTLTISSLQAEDVAVYYCQNDHSHPFTFGQGTKLEIK
# B2: 33D03_H5-L2 (antibody, V domains shown)
# VH: B1 VH with Q1E, S61N, K63R, Q65K, I70L, R72V, T74K, A76S
# VL: B1 VL with E74G, I75T
# B3: 33D03_H3-L1 (antibody, V domains shown)
# VH: B1 VH with R72V, T74K, A76S
# VL: B1 VL with S22N, E74G, I75T
# B4: 25B05_H1-L1 (antibody, V domains shown)
# VH: QVQLVQSGAEVKKPGASVKVSCKASGYTFTDYFMNWVRQAPGQRLEWMGVINPHNGGTSYSQKFQGRVTITRDTSASTAYMELSSLRSEDTAVYYCARRPLGSDYWGQGTTVTVSS
# VL: DIQMTQSPSSVSASVGDRVTITCKASQNVGTAVAWYQQKPGKAPKLLIYSASSRYTGVPSRFSGSGSGTDFTLTISSLQPEDFATYYCQQYSSYPLTFGQGTKLEIK
# B5: 25B05_H1-L4 (antibody, V domains shown)
# VH: B4 VH
# VL: B4 VL with Q3V, G57E, S60D
# B6: 25B05_H1-L2 (antibody, V domains shown)
# VH: B4 VH
# VL: B4 VL with Q3V
# Target: human VWF (human)
# Assay: ELISA
# Chain of human VWF (human) (P04275 whole entry): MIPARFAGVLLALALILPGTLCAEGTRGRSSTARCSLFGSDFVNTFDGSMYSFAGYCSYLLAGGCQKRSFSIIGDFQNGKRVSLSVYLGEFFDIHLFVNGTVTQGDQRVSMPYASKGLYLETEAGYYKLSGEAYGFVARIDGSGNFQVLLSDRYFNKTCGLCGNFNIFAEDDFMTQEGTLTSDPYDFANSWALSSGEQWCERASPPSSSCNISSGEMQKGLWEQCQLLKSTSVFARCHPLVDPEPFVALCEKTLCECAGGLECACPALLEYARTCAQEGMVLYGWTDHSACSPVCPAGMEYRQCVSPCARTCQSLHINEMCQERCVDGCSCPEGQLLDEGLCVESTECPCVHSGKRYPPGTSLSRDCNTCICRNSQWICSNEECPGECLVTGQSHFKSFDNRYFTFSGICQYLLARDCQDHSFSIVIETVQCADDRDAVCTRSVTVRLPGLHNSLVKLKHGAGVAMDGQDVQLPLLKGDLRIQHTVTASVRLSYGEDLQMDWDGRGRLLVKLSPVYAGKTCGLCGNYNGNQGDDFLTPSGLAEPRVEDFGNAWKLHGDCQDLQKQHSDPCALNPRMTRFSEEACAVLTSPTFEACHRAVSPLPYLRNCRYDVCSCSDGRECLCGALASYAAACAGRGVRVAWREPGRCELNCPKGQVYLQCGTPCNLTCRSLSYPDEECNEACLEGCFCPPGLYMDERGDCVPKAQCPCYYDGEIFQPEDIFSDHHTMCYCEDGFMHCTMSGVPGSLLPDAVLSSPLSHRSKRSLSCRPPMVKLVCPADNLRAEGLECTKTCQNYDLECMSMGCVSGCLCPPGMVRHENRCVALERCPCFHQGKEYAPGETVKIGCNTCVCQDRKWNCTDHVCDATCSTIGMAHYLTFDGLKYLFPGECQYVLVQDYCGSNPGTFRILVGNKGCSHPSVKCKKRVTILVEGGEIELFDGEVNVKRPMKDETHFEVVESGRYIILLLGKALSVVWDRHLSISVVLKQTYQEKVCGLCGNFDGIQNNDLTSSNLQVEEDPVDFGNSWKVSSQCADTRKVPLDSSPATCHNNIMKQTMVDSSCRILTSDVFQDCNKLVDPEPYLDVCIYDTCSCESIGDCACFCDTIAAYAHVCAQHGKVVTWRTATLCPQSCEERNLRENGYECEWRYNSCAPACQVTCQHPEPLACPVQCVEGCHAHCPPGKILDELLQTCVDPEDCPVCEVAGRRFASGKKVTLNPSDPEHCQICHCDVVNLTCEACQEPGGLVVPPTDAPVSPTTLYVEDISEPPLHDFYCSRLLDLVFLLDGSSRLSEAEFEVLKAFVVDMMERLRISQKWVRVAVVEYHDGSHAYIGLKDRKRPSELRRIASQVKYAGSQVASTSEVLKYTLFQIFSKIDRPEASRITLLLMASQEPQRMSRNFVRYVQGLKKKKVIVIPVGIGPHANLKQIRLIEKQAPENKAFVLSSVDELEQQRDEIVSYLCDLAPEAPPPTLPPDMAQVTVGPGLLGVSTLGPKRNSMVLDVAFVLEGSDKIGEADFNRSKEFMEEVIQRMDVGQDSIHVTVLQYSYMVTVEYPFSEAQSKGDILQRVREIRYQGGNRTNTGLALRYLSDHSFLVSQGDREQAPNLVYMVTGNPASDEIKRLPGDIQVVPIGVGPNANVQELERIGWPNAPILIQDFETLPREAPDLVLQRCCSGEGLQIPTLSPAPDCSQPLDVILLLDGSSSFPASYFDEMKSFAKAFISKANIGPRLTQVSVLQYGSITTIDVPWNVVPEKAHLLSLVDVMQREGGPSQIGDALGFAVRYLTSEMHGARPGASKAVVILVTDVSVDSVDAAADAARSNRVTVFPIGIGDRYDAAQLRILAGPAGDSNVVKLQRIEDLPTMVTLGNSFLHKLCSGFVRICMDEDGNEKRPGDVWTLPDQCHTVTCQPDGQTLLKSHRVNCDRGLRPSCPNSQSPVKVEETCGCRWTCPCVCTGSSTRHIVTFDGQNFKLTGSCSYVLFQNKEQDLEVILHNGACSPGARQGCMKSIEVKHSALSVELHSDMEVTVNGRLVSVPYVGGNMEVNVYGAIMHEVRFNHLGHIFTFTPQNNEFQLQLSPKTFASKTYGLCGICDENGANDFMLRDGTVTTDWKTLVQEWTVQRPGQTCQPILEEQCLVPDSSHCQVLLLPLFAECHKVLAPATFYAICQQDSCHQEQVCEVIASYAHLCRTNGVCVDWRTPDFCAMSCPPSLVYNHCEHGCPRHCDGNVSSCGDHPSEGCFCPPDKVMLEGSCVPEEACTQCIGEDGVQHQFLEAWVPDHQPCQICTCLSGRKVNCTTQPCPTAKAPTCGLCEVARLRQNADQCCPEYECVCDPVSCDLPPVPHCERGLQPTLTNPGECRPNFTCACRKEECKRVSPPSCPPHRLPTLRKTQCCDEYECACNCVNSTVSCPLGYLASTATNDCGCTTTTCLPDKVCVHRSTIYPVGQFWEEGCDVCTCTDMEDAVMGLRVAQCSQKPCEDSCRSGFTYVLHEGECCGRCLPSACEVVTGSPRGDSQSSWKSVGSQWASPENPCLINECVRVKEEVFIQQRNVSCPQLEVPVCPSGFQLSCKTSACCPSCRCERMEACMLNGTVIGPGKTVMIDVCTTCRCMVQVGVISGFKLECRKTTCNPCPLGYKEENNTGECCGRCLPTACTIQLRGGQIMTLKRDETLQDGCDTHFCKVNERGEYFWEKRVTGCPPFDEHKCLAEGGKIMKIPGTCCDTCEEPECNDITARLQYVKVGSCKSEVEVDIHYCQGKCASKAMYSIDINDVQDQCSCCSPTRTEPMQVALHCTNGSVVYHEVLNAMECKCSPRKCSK
row,EC50 [µg/mL],Binder
1,0.054,B1
2,0.0294,B2
3,0.0447,B3
4,0.0312,B4
5,0.0344,B5
6,0.0334,B6
